Results on seven molecules are retold here after patent publication US20260098089A1 (KYMAB, published 2026).

Where only a bound is given, the exact number is not on record here.

Assay [1] concerns the target T1, Human CD7 on cells (CEM and other T-ALL cells, peripheral NK and T cells) (human, UniProt P09564 26-238).
T1 sequence: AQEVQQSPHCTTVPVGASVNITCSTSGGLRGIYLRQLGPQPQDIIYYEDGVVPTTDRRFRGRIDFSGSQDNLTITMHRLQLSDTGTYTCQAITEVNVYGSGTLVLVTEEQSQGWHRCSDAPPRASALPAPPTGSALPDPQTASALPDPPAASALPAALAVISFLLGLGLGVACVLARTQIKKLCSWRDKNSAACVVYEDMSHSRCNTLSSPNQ
The assay is described as follows: cell-based or functional assay.

Assay [2] deals with T2, Human CD7 protein (soluble) (human, UniProt P09564 26-180).
T2 construct: also called hCD7; human antigen
T2 sequence: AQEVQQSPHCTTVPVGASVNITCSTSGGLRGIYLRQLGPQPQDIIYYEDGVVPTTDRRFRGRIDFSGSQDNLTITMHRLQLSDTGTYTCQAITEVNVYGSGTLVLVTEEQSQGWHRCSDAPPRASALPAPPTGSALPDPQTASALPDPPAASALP
The experiment in a line: SPR, captured mAb, global fit 1:1 model.

Assay [3] has as its target T3, Cynomolgus monkey (Macaca fascicularis) CD7 protein (soluble) (cynomolgus monkey (Macaca fascicularis)).
T3 construct: also called Cynomolgus CD7; cynomolgus antigen
T3 chain: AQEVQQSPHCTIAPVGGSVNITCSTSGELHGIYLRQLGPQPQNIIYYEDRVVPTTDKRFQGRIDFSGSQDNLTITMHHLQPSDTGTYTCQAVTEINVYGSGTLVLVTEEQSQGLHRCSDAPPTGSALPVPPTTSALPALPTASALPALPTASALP
The assay is described as follows: SPR, captured mAb, global fit 1:1 model. A general note: SPR reads the build-up and loss of mass on a sensor chip optically.

Assay [4] deals with T1, Human CD7 on cells (CEM and other T-ALL …). The assay is described as follows: cell-based or functional assay. This is another data set of the same source.
Assay [5] concerns the target T2, Human CD7 protein (soluble). The experiment in a line: Affinity to soluble CD7 (biophysical summary; SPR).
Assay [6] has as its target T3, Cynomolgus monkey (Macaca fascicularis) …. The experiment in a line: Affinity to soluble CD7 (biophysical summary; SPR).
Assay [7] shares this target. The assay is described as follows: SPR, mAb captured, single concentration of cynomolgus CD7 protein as analyte.

B1: 1734F05 E345R (antibody, V domains shown)
VH: EVQLVESGGGLVQPGGSLRLSCAASGFTFSRYAMSWVRQAPGKGLEWVSSISASGATTFYADPVKGRFTISRDNSKKTLYLQMNSLRAEDTAVYYCAKDQDFDILTGYLNWFDPWGQGTLVTVSS
VL: EIVLTQSPATLSLSPGERVILSCRVSQSVSSYLAWYQQKPGQAPRLLIYDTSNRATGIPARFSGSGSGTDFTLTISSLEPEDFAVYYCQQRRNWPLTFGGGTKVEIK
In the case of B1, in assay [1], the “EC50, CDC assay on CEM cells” value was determined as 1.16 nM and the “Maximum killing, CDC assay on CEM cells” value was 100%.

B2: 1734F05 (antibody, V domains shown)
VH: B1 VH
VL: B1 VL
As for B2, in assay [2], the dissociation constant (Kd) was determined as 0.98 nM, the koff amounted to 0.000356 s⁻¹ and the kon amounted to 369000 M⁻¹ s⁻¹. Besides, in assay [3], the Kd stood at 3.9 nM, the koff stood at 0.000642 s⁻¹ and the association rate constant (kon) is 165000 M⁻¹ s⁻¹.

B3: 1730C02 E345R (antibody, human IgG1, V domains shown)
VH: EVQLVESGGGLVQLGGSLRLSCAASGLTFNNYAMSWVRQAPGKGLEWVSTISGSGGSTYYADSAKGRFTISRDNSKNTLYLQMNSLRAEDTAVYYCAKGGLLYFGEFHFDYWGQGTLVTVSS
VL: DIQMTQSPSSLSASVGDRVTIICRASQGISNYLAWFQQKPGKAPKSLIYAASSLQSGVPSKFSGSGSGTDFTLTISSLQPEDFATYYCQHYNSYPLTFGGGTKVEIK
Consider B3, for which, in assay [1], the “EC50, CDC assay on CEM cells” value was 0.00037 nM and the “Maximum killing, CDC assay on CEM cells” value stood at 93.2%.

B4: 1741G09 E345R (antibody, V domains shown)
VH: EVQLVESGGGLVKPGGSLRLSCAASGFSFSVAWMSWVRQAPGKGLEWVGRIKRKTDGGTTDYAAPVKGRFIISRDDSIKALYLQMNSLKTEDTAVYYCTTDPLLRYSDWLSHSLMGDVWGQGTTVTVSS
VL: DIQMTQSPSSLSASVGDRVAITCRTSQNINNYLNWYQQKPGKAPKPLIYAASSLQSGVPSRFSGSGSGTDFTLTISTLHPEDFATYYCQQTYSIPLTFGGGTKVEIK
On to B4, for which, in assay [1], the “EC50, CDC assay on CEM cells” value stood at 0.12 nM and the “Maximum killing, CDC assay on CEM cells” value came to 99.5%.

B5: 1741G09 HuIgG1 E430G C-term Lysine clipped, Phe variant of light chain (antibody, V domains shown)
VH: B4 VH
VL: DIQMTQSPSSLSASVGDRVAITCRTSQNINNYLNWYQQKPGKAPKPLIYAASSLQSGVPSRFSGSGSGTDFTLTISTLHPEDFATYYCQQTYSIPLTFGGGTKVEIKR
notes: also called 1741G09 E430G; G09 E430G
With B5, in assay [4], the “CDC EC50; PDATLLAd2R, PDATALL12, PDTALL11 (intermediate to low CD7 expression)” value is below 0.4 nM; the “CDC EC50; PDTALL13, PDTALL18 (much low CD7 expression)” value is below 0.6 nM; the “CDC EC50; PDTALL46 and PDTALLAd2R” value is around 0.35 nM; the “CDC assay on isolated peripheral NK cells, EC50” value is around 0.3 nM. In assay [5], the Kd is 4.75 nM. Binding in assay [6] was characterised by a dissociation constant (Kd) of 0.15 nM.

B6: 1741G09 (antibody, V domains shown)
VH: B4 VH
VL: B4 VL
notes: also called 1741G9
On to B6, for which, in assay [2], binding was characterised by a dissociation constant (Kd) of 4.74 nM, the off-rate (koff) amounted to 0.00192 s⁻¹ and the kon amounted to 416000 M⁻¹ s⁻¹. In assay [3], binding was characterised by a dissociation constant (Kd) of 0.145 nM and the kon was found to be 424000 M⁻¹ s⁻¹.

B7: 1741E04 E345R (antibody, human IgG1, V domains shown)
VH: EVQLVESGGGLVKPGGSPRLSCAAYGVTFSNAWMSWVRQAPGKGLEWVGRIKSKTDGGTTDYAAPVKGRFTISRDDSKNTLYLQMNSLKTEDTAVYYCTIEAVAGHFDYWGQGTLVTVSS
VL: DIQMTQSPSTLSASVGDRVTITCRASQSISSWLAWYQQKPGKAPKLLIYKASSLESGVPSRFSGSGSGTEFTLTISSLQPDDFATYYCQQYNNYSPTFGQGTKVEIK
Consider B7, for which, in assay [1], the “EC50, CDC assay on CEM cells” value is 0.12 nM and the “Maximum killing, CDC assay on CEM cells” value turned out to be 99.8%. For the same molecule, the binding result in assay [7] was “no binding”.

For orientation: Kd means the constant that tells how readily two partners part at equilibrium. As usually defined, the koff is the first-order rate constant of dissociation. For orientation: kon means a measure of how fast the partners come together.
